Patent publication US20240254227A1 (Alector, published 2024)

T1: murine CD300C-Fc (mouse)
T1 construct: mouse IgG2a-Fc fusion (R&D Systems); the entry is the whole fusion chain; also called mCD300C; Mouse CD300C-Fc
T1 chain: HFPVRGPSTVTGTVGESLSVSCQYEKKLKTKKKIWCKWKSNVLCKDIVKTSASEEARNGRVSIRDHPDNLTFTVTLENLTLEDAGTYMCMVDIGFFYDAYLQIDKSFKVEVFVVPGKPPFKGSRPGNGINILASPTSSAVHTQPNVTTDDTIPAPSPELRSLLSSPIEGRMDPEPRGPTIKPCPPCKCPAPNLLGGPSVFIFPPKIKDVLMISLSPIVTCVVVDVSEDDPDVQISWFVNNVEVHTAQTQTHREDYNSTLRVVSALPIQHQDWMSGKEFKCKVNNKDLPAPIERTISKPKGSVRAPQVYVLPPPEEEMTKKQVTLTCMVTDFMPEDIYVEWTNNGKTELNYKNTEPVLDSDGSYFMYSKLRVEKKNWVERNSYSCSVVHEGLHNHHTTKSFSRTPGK

T2: murine CD300E-Fc (mouse)
T2 construct: mouse IgG2a-Fc fusion (R&D Systems); the entry is the whole fusion chain; also called mCD300E; Mouse CD300E-Fc
T2 chain: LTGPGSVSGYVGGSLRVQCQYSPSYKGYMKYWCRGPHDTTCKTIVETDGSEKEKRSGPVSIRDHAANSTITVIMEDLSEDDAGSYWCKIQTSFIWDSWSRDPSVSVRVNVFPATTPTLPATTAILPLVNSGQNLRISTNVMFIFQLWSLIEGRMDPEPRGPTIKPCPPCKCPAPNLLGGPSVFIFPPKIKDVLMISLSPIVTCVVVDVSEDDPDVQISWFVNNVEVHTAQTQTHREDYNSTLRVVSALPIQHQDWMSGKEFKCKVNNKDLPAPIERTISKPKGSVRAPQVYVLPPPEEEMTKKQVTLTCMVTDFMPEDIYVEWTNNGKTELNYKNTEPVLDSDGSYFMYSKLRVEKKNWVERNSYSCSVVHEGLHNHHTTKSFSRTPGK

T3: murine CD300LB stably expressed on Jurkat cells (mouse, UniProt Q3U497 18-209)
T3 construct: also called muCD300LB; mouse CD300LB
T3 sequence: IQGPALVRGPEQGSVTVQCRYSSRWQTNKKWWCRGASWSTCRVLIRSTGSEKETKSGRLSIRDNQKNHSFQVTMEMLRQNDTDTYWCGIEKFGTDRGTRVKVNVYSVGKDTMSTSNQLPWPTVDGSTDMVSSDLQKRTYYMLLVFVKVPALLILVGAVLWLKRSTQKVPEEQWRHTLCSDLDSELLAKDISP

T4: recombinant human CD300LB overexpressed on Jurkat cells (human, UniProt A8K4G0 18-201)
T4 construct: also called huCD300LB; huCD300LB-expressing Jurkat cells
T4 sequence: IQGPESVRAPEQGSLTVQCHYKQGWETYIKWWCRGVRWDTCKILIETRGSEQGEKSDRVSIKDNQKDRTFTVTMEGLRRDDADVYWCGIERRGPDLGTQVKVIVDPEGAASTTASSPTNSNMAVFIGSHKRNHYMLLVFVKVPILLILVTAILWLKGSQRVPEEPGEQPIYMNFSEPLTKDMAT

B1: anti-CD300LB antibody CD-17 (antibody, V domains shown)
VH: QIQLVQSGPELKKPGETVKISCKASGYTLTDYSMHWVKQAPGKGLKWMGWINTETGEPRYGDDFKGRFAFSLETSASSAYLQINNLKNDDTATYFCATYGRSYGMDFWGQGTSVTVSS
VL: DIVLTQSPASLAVSLGQRATISCRASKSVSPSGHSYMHWYQQKPGQPPKLLIYLASNLKSGVPARFSGSGSGTDFTLNIHPVEEGDAATYYCQHNRELPPTFGGGSKLEIK
B2: anti-CD300LB antibody CD-18 (antibody, V domains shown)
VH: DVQLQESGPDLVKPSQSLSLTCTVTGYSITSGYSWHWIRQFPDNKLEWMGYILSRGDTNFNPSLKSRISITRSTSNNQFFLHFNSVTTEDTATYYCARDFFDYWGQGTTLTVSS
VL: DVLMTQTPLSLPVSLGDQASISCRSSQSIVHSNGNTYLEWYLQKPGQSPKLLIYKVSDRFSGVPDRFSGSGSGTDFTLKISRVEAEDLGVYFCFQGSHVPYTFGGGTKLEIK

Legend:
murine CD300C-Fc = target: T1, murine CD300C-Fc; assay: SPR (Carterra LSA), antibody immobilised, Fc fusion at 300 or 600 nM
Description: (§1) Binding of mouse anti-CD300LB IgG1 antibodies of the present disclosure to human and murine CD300 orthologs were evaluated by surface plasmon resonance (SPR) using a Carterra LSA instrument (Carterra, Salt Lake City, UT). […] A HC200M sensor chip (Carterra) was activated using the single channel flow cell with a 7-minute injection of a 1:1:1 mixture of 100 mM MES pH 5.5, 100 mM sulfo-NHS, 400 mM EDC (all reconstituted in MES pH 5.5; 100 μL of each mixed in vial immediately before running assay). After switching to the multi-channel array flow cell, the antibodies were injected over the activated chip in a 96-spot array for 10 minutes. The remaining unconjugated active groups on the chip were then blocked by injecting 1M Ethanolamine pH 8.5 (Carterra) for 7 minutes using the single channel flow cell. After priming with running buffer (HBS-TE, Carterra) with 0.5 mg/ml BSA (Sigma), the immobilized anti-CD300LB antibodies were tested for their ability to bind human and mouse recombinant CD300LB extracellular domains. Human CD300 family members and mouse CD300A were hIgG1-Fc fusions, while mouse CD300LB, mouse CD300C, mouse CD300D, and mouse CD300E were mouse IgG2a-Fc fusions (R&D Systems). Binding was assessed by injecting each analyte over the entire antibody array using the single channel flow cell. CD300 analytes were diluted to 300 nM or 600 nM in running buffer and injected in series without regeneration. Two or three buffer blanks were run between each mouse or human ortholog, respectively. Data were processed and analyzed using NextGenKIT high-throughput kinetics analysis software (Carterra).
(§2) Results of anti-CD300LB antibody binding to murine CD300 family members is provided below in Table 8.

murine CD300A-Fc = target: T5, murine CD300A-Fc (mouse); assay: as above
T5 construct: hIgG1-Fc fusion; the entry is the whole fusion chain; also called mCD300A; Mouse CD300A-Fc
Description: as §1, §2

murine CD300E-Fc = target: T2, murine CD300E-Fc; assay: as above
Description: as §1, §2

[1] = target: T3, murine CD300LB stably expressed on …; assay: flow cytometry, stable Jurkat cells, supernatant or 10 ug/mL, isotype subtracted
Description: (§3) Purified anti-CD300LB antibodies of the present disclosure were also evaluated for species cross-reactivity to mouse and human CD300LB stably expressed in Jurkat cells (generation of which is described above). Cells were counted and labeled with 200 nM CFSE, 500 nM VioBlue, or a combination of the two to discriminate between human CD300LB, Parental cells and mouse CD300LB. Cells were washed thoroughly with PBS containing 2% fetal bovine serum then resuspended at a total of 240,000 cells per well. Hybridoma supernatants (100 L) or purified antibodies at 10 μg/mL were added and incubated for one hour before the cells were washed again and stained with an APC-labeled anti-human or anti-mouse secondary. Cells were then analyzed using a BD FACSCanto II. Antibodies were analyzed for binding to mouse or human CD300LB by FlowJo software by gating on live cells, then the APC gMFI calculated for each labeled population by subtraction of the gMFI of the appropriate isotype control.

[2] = target: T4, recombinant human CD300LB overexpressed …; assay: as above
Description: as §3

T5 sequence (chain, as listed by the source limits assumed): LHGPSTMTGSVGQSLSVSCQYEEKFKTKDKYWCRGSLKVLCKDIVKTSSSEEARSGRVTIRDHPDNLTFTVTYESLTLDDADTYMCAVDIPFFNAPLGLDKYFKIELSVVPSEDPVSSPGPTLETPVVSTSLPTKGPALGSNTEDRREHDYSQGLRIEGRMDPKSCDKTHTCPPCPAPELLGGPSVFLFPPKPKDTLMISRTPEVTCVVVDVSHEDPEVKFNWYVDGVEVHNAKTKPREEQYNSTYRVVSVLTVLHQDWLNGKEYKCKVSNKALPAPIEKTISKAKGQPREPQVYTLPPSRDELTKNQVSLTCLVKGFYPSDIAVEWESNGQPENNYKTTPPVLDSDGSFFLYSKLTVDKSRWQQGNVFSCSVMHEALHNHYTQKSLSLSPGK

SPR binding (control subtracted) (murine CD300C-Fc) | SPR binding (control subtracted) (murine CD300A-Fc) | SPR binding (control subtracted) (murine CD300E-Fc) | gMFI [1] | gMFI [2] | Binder
1.5 | 2.9 | -0.7 | 1680 gMFI | 13 gMFI | B1
1.5 | 2.9 | -0.1 | 643 gMFI | 114 gMFI | B2
